From patent US20240327535A1 (EISAI R AND D MANAGEMENT, published 2024) come the findings set out here.

Substitutions are numbered along the chain they refer to.

The chains are these.
B1: AB200-R1H26-R2Vk1 (Fab, V domains shown)
VH: QVQLVQSGAEVKKPGSSVKVSCKASGGSFSNYWMHWVRQAPGQGLEWMGATYRIHSDTFYNQKFKGRVTITADKSTSTAYMELSSLRSEDTAVYYCARGAIYHGYDVLDNWGQGTLVTVSS
VL: DIQMTQSPSSLSASVGDRVTITCRASQSISSYLNWYQQKPGKAPKLLIYAASSLQSGVPSRFSGSGSGTDFTLTISSLQPEDFATYYCQQFRKLPWSFGQGTKLEIKR
B2: AB200-R1H26-R2Vk14 (Fab, V domains shown)
VH: B1 VH
VL: B1 VL with L33I, F91Y, K93R
B3: AB200-R1H26-R2Vk15 (Fab, V domains shown)
VH: B1 VH
VL: B1 VL with L33I, F91Y, K93R, L94I, S97T
B4: AB200-R1H26-R2Vk2 (Fab, V domains shown)
VH: B1 VH
VL: B1 VL with L33I
B5: AB200-R1H26-R2Vk13 (Fab, V domains shown)
VH: B1 VH
VL: B1 VL with L94I, S97T
B6: AB200-R1H26-R2Vk30 (Fab, V domains shown)
VH: B1 VH
VL: B1 VL with A51T, S53N, S56I, F91Y, K93R, L94I, S97T
B7: AB200-R1H26-R2Vk43 (Fab, V domains shown)
VH: B1 VH
VL: B1 VL with L33I, A51T, S53N, L54I, L94I, S97T
B8: AB200-R1H26-R2Vk10 (Fab, V domains shown)
VH: B1 VH
VL: B1 VL with F91Y, K93R, L94I, S97T
B9: AB200-R1H26-R2Vk5 (Fab, V domains shown)
VH: B1 VH
VL: B1 VL with A51T, S53N, S56I
B10: AB200-R1H26-R2Vk7 (Fab, V domains shown)
VH: B1 VH
VL: B1 VL with L33I, A51T, S53N, L54I
B11: AB200-R1H26-R2Vk39 (Fab, V domains shown)
VH: B1 VH
VL: B1 VL with L33I, A51T, S53N, L54I, F91Y, K93R
B12: AB200-R1H26-R2Vk33 (Fab, V domains shown)
VH: B1 VH
VL: B1 VL with A51T, S53N, S56I, L94I, S97T
B13: AB200-R1H26-R2Vk4 (Fab, V domains shown)
VH: B1 VH
VL: B1 VL with A51T, S53N, L54I
B14: AB200-R1H26-R2Vk36 (Fab, V domains shown)
VH: B1 VH
VL: B1 VL with L33I, A51T, S53N, K93R, S97T
B15: AB200-R1H26-R2Vk23 (Fab, V domains shown)
VH: B1 VH
VL: B1 VL with A51T, S53N, L94I, S97T
B16: AB200-R1H26-R2Vk40 (Fab, V domains shown)
VH: B1 VH
VL: B1 VL with L33I, A51T, S53N, L54I, F91Y, K93R, L94I, S97T
B17: AB200-R1H26-R2Vk35 (Fab, V domains shown)
VH: B1 VH
VL: B1 VL with L33I, A51T, S53N, F91Y, K93R, L94I, S97T
B18: AB200-R1H26-R2Vk42 (Fab, V domains shown)
VH: B1 VH
VL: B1 VL with L33I, A51T, S53N, L54I, F91Y, L94I
B19: AB200-R1H26-R2Vk38 (Fab, V domains shown)
VH: B1 VH
VL: B1 VL with L33I, A51T, S53N, L94I, S97T
B20: AB200-R1H26-R2Vk44 (Fab, V domains shown)
VH: B1 VH
VL: B1 VL with L33I, A51T, S53N, S56I, F91Y, K93R
B21: AB200-R1H26-R2Vk8 (Fab, V domains shown)
VH: B1 VH
VL: B1 VL with L33I, A51T, S53N, S56I
B22: AB200-R1H26-R2Vk3 (Fab, V domains shown)
VH: B1 VH
VL: B1 VL with A51T, S53N
B23: AB200-R1H26-R2Vk21 (Fab, V domains shown)
VH: B1 VH
VL: B1 VL with A51T, S53N, K93R, S97T
B24: AB200-R1H26-R2Vk19 (Fab, V domains shown)
VH: B1 VH
VL: B1 VL with A51T, S53N, F91Y, K93R
B25: AB200-R1H26-R2Vk46 (Fab, V domains shown)
VH: B1 VH
VL: B1 VL with L33I, A51T, S53N, S56I, K93R, S97T
B26: AB200-R1H26-R2Vk26 (Fab, V domains shown)
VH: B1 VH
VL: B1 VL with A51T, S53N, L54I, K93R, S97T
B27: AB200-R1H26-R2Vk9 (Fab, V domains shown)
VH: B1 VH
VL: B1 VL with F91Y, K93R
B28: AB200-R1H26-R2Vk34 (Fab, V domains shown)
VH: B1 VH
VL: B1 VL with L33I, A51T, S53N, F91Y, K93R
B29: AB200-R1H26-R2Vk31 (Fab, V domains shown)
VH: B1 VH
VL: B1 VL with A51T, S53N, S56I, K93R, S97T
B30: AB200-R1H26-R2Vk11 (Fab, V domains shown)
VH: B1 VH
VL: B1 VL with K93R, S97T
B31: AB200-R1H26-R2Vk45 (Fab, V domains shown)
VH: B1 VH
VL: B1 VL with L33I, A51T, S53N, S56I, F91Y, K93R, L94I, S97T
B32: AB200-R1H26-R2Vk41 (Fab, V domains shown)
VH: B1 VH
VL: B1 VL with L33I, A51T, S53N, L54I, K93R, S97T
B33: AB200-R1H26-R2Vk32 (Fab, V domains shown)
VH: B1 VH
VL: B1 VL with A51T, S53N, S56I, F91Y, L94I
B34: AB200-R1H26-R2Vk6 (Fab, V domains shown)
VH: B1 VH
VL: B1 VL with L33I, A51T, S53N
B35: AB200-R1H26-R2Vk29 (Fab, V domains shown)
VH: B1 VH
VL: B1 VL with A51T, S53N, S56I, F91Y, K93R
B36: AB200-R1H26-R2Vk48 (Fab, V domains shown)
VH: B1 VH
VL: B1 VL with L33I, A51T, S53N, S56I, L94I, S97T
B37: AB200-R1H26-R2Vk27 (Fab, V domains shown)
VH: B1 VH
VL: B1 VL with A51T, S53N, L54I, F91Y, L94I
B38: AB200-R1H26-R2Vk22 (Fab, V domains shown)
VH: B1 VH
VL: B1 VL with A51T, S53N, F91Y, L94I
B39: AB200-R1H26-R2Vk47 (Fab, V domains shown)
VH: B1 VH
VL: B1 VL with L33I, A51T, S53N, S56I, F91Y, L94I
B40: AB200-R1H26-R2Vk12 (Fab, V domains shown)
VH: B1 VH
VL: B1 VL with F91Y, L94I
B41: AB200-R1H26-R2Vk37 (Fab, V domains shown)
VH: B1 VH
VL: B1 VL with L33I, A51T, S53N, F91Y, L94I
B42: AB200-R1H26-R2Vk20 (Fab, V domains shown)
VH: B1 VH
VL: B1 VL with A51T, S53N, F91Y, K93R, L94I, S97T
B43: AB200-R1H26-R2Vk24 (Fab, V domains shown)
VH: B1 VH
VL: B1 VL with A51T, S53N, L54I, F91Y, K93R
B44: AB200-R1H26-R2Vk25 (Fab, V domains shown)
VH: B1 VH
VL: B1 VL with A51T, S53N, L54I, F91Y, K93R, L94I, S97T
B45: AB200-R1H26-R2Vk28 (Fab, V domains shown)
VH: B1 VH
VL: B1 VL with A51T, S53N, L54I, L94I, S97T

The target in the assay is T1, extracellular domain of human BCMA (human, UniProt Q02223 1-54).
T1 construct: amine-linked to Octet AR2G tips; also called hsBCMA; BCMA (human)
T1 sequence: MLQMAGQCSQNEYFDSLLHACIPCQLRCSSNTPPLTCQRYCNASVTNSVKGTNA
In words: Octet BLI; Fab 200 nM. (BLI is a label-free optical method that tracks binding on a fibre tip over time.)
B1 gave an equilibrium dissociation constant (Kd) of 2.04 nM.
Under B2 stands 2.52 nM; under B3, 3.27 nM.
Under B4 stands 2.37 nM; under B5, 3.02 nM; under B6, 1.74 nM.
Under B7 stands 3.23 nM; under B8, 3.23 nM; under B9, 1.29 nM.
As to B10, the dissociation constant (Kd) is 2.17 nM.
Under B11 stands 1.83 nM; under B12, 1.74 nM.
Molecule B13 yielded a Kd of 1.7 nM.
B14: the dissociation constant (Kd) was determined as 1.67 nM.
The molecule B15 registered a Kd of 2.28 nM.
Regarding B16, binding was put at a Kd of 2.34 nM.
To B17 belongs 1.76 nM; to B18, 2.42 nM.
To B19 belongs 2.85 nM; to B20, 1.28 nM; to B21, 1.69 nM.
Regarding B22, the Kd was found to be 1.62 nM.
To B23 belongs 1.27 nM.
B24 yielded a Kd of 1.62 nM.
Under B25 stands 1.35 nM; under B26, 1.46 nM.
B27 registered a Kd of 2.35 nM.
For the molecule B28, binding was characterised by a dissociation constant (Kd) of 1.55 nM.
To B29 belongs 1.1 nM; to B30, 1.55 nM.
Under B31 stands 1.57 nM.
To B32 belongs 1.87 nM; to B33, 1.93 nM; to B34, 2.08 nM.
In turn, B35 returned a Kd of 1.18 nM.
In the case of B36, the Kd turned out to be 2.31 nM.
Take B37: the Kd came out at 2.33 nM.
Turning to B38, the Kd was 2.24 nM.
As to B39, binding was put at a Kd of 1.73 nM.
Under B40 stands 3.72 nM; under B41, 2.3 nM.
As for B42, binding was put at a Kd of 2.1 nM.
B43: the Kd stood at 1.62 nM.
Under B44 stands 2.04 nM; under B45, 2.68 nM.

One may read the Kd as the concentration at which binding is half-saturated. Low values mean tighter binding, high ones weaker binding.
